Measurements published in patent US20180112001A1.

Biological target: human MUC16 (mucin 16), endogenously expressed on cells (human)
Assay: MSD electrochemiluminescence cell binding; RLU ratio OVCAR-3/SK-OV-3; Ab […]; NS = Non-Specific, ratio <2.5-fold

Substance | Ratio: anti-MUC16 Binding OVCAR-3/SK-OV-3
mIgG1 Isotype Control Antibody | < 2.5
mIgG2a Isotype Control Antibody | < 2.5
hIgG1 Isotype Control Antibody | < 2.5
